Laboratory results: patent US20060193821, “Aptamers to the human IL-12 cytokine family and their use as autoimmune disease therapeutics” (published 2006)

B1: AMX91-H7 (ssRNA)
RNA: GGGAAAAGCGAAUCAUACACAAGACUUAUCGCCUCAAGGGGGGUAAUAAACCCAGCGUGUGCAUGCUCCGCCAGAGACCAACCGAGAA
modifications: 2'-F C,U
B2: AMX91-G9 (ssRNA)
RNA: GGGAAAAGCGAAUCAUACACAAGAAUUGUGCUUACAACUUUCGUUGUACCGACGUGUCAGUUAUGCUCCGCCAGAGACCAACCGAGAA
modifications: 2'-F C,U
B3: AMX91-D9 (ssRNA)
RNA: GGGAAAAGCGAAUCAUACACAAGAGUGUAUUACCCCCAACCCAGGGGGACCAUUCGCGUAACAAGCUCCGCCAGAGACCAACCGAGAA
modifications: 2'-F C,U
B4: AMX91-C12 (ssRNA)
RNA: GGGAAAAGCGAAUCAUACACAAGACGAUAGUAUGACCUUUUGAAAGGCUUCCCGAGCGGUGUUCGCUCCGCCAGAGACCAACCGAGAA
modifications: 2'-F C,U
B5: ARC1167 (mixed)
RNA: ACAGGCAAGUAAUUGGGGAGUGCGGGCGGGGUGU
modifications: deoxy A,G; 2'-OMe C,U; PS 28-29 [PS linkage 28-29; 2'-OMe C,U at 2,6,10,13,14,21,23,27,32,34; all A,G 2'-deoxy]
B6: ARC1166 (mixed)
RNA: B5 RNA
modifications: deoxy A,G; 2'-OMe C,U; PS 27-28 [PS between 27-28; 2'-OMe C,U at 2,6,10,13,14,21,23,27,32,34; deoxy A,G at all other positions]
B7: ARC1151 (mixed)
RNA: B5 RNA
modifications: deoxy A,G; 2'-OMe C,U; PS 6-7
B8: ARC1155 (mixed)
RNA: B5 RNA
modifications: deoxy A,G; 2'-OMe C,U; PS 10-11 [PS between 10-11; 2'-OMe C,U at 2,6,10,13,14,21,23,27,32,34; deoxy A,G at all other positions]
B9: ARC1153 (mixed)
RNA: B5 RNA
modifications: deoxy A,G; 2'-OMe C,U; PS 8-9
B10: ARC1158 (mixed)
RNA: B5 RNA
modifications: deoxy A,G; 2'-OMe C,U; PS 13-14 [PS between 13-14; 2'-OMe C,U at 2,6,10,13,14,21,23,27,32,34; deoxy A,G at all other positions]
B11: ARC1152 (mixed)
RNA: B5 RNA
modifications: deoxy A,G; 2'-OMe C,U; PS 7-8
B12: ARC1156 (mixed)
RNA: B5 RNA
modifications: deoxy A,G; 2'-OMe C,U; PS 11-12 [PS between 11-12; 2'-OMe C,U at 2,6,10,13,14,21,23,27,32,34; deoxy A,G at all other positions]
B13: ARC1165 (mixed)
RNA: B5 RNA
modifications: deoxy A,G; 2'-OMe C,U; PS 26-27 [PS between 26-27; 2'-OMe C,U at 2,6,10,13,14,21,23,27,32,34; deoxy A,G at all other positions]
B14: AMX91-G1 (ssRNA)
RNA: GGGAAAAGCGAAUCAUACACAAGAUAUGUGCCUGGGAUGGACGACAUCCCCUGUCUAAGGAUAUGCUCCGCCAGAGACCAACCGAGAA
modifications: 2'-F C and U, 2'-OH A and G
B15: AMX86-C5 (ssRNA)
RNA: GGGAAAAGCGAAUCAUACACAAGAGUUUUAUGUGGGUCCCGAUGAUUAACUUUAUUGGCGCAUUGCUCCGCCAGAGACCAACCGAGAA
modifications: 2'-F C and U, 2'-OH A and G
B16: AMX91-G11 (ssRNA)
RNA: GGGAAAAGCGAAUCAUACACAAGACUUAACAGUGCGGGGCGCAGUGUAUAGAUCCGCAAUGUGUGCUCCGCCAGAGACCAACCGAGAA
modifications: 2'-F C and U, 2'-OH A and G
B17: AMX91-A6 (ssRNA)
RNA: GGGAAAAGCGAAUCAUACACAAGAUUGGCAAUGUGACCUUCAACCCUUUUCCCGAUGAACAGUGGCUCCGCCAGAGACCAACCGAGAA
modifications: 2'-F C and U, 2'-OH A and G
B18: AMX91-H8 (ssRNA)
RNA: GGGAAAAGCGAAUCAUACACAAGAACGCAUAGUCGGAUUUACCGAUCAUUCUGUGCCUUCGUGACGCUCCGCCAGAGACCAACCGAGAA
modifications: 2'-F C and U, 2'-OH A and G
B19: AMX91-F11 (ssRNA)
RNA: GGGAAAAGCGAAUCAUACACAAGACGCGUCAGGUCCACGCUGAAAUUUAUUUUCGGCAGUGUAAGCUCCGCCAGAGACCAACCGAGAA
modifications: 2'-F C and U, 2'-OH A and G
B20: AMX86-D5 (ssRNA)
RNA: GGGAAAAGCGAAUCAUACACAAGAGAGGUAUGUGGUUUUGCGGAGCAACUCGUGUCAGCGGUCAGCUCCGCCAGAGACCAACCGAGAA
modifications: 2'-F C and U, 2'-OH A and G
B21: AMX86-D6 (ssRNA)
RNA: GGGAAAAGCGAAUCAUACACAAGAUUAGGCGUCGUGACAAUAACUGGUCCACGAGCAUGUCAGUGCUCCGCCAGAGACCAACCGAGAA
modifications: 2'-F C and U, 2'-OH A and G
B22: AMX84-A11 (ssRNA)
RNA: B20 RNA
modifications: 2'-F C and U, 2'-OH A and G
B23: AMX91-E3 (ssRNA)
RNA: GGGAAAAGCGAAUCAUACACAAGAUUACUCCGUUAGUGUCAGUUGACGGAGGGAGCGUACUAUUGCUCCGCCAGAGACCAACCGAGAA
modifications: 2'-F C and U, 2'-OH A and G
B24: AMX91-B8 (ssRNA)
RNA: GGGAAAAGCGAAUCAUACACAAGAAUCCUGGCUUCGCAUAGUGUAUGGGUAGUACGACAGCGCGUGCUCCGCCAGAGACCAACCGAGAA
modifications: 2'-F C and U, 2'-OH A and G
B25: AMX86-B10 (ssRNA)
RNA: GGGAAAAGCGAAUCAUACACAAGAGAACGAGUAUAUUUGCGCUGGCGGAGAAGUCUCUCGAAGGGAGCUCCGCCAGAGACCAACCGAGAA
modifications: 2'-F C and U, 2'-OH A and G
B26: AMX84-C11 (ssRNA)
RNA: GGGAAAAGCGAAUCAUACACAAGAAUGGUCGGAAUCUCUGGCGCCACGCUGAGUAUAGACGGAAGCUCCGCCAGAGACCAACCGAGAA
modifications: 2'-F C and U, 2'-OH A and G
B27: AMX91-B5 (ssRNA)
RNA: GGGAAAAGCGAAUCAUACACAAGACAGUGUAUGAGGAAGAUUACUUCCAUUCCUGAGCGGUUUUCGCUCCGCCAGAGACCAACCGAGAA
modifications: 2'-F C and U, 2'-OH A and G
B28: AMX84-E12 (ssRNA)
RNA: GGGAAAAGCGAAUCAUACACAAGAAGUUUUUGUGCUCUGAGUACUCAGCGUCCGUAAGGGAUAUGCUCCGCCAGAGACCAACCGAGAA
modifications: 2'-F C and U, 2'-OH A and G
B29: AMX86-G10 (ssRNA)
RNA: GGGAAAAGCGAAUCAUACACAAGAGUCAUGGCUUACAAUUGAAACAAGAGCUCGCGUGACACAUGCUCCGCCAGAGACCAACCGAGAA
modifications: 2'-F C and U, 2'-OH A and G

Molecular target: IL-12 (human, p35/p40 heterodimer) (Homo sapiens, UniProt P29459;P29460 SEQ:57-253,SEQ:23-328)
Sequence (P29459 23-219, chain 1 of 2): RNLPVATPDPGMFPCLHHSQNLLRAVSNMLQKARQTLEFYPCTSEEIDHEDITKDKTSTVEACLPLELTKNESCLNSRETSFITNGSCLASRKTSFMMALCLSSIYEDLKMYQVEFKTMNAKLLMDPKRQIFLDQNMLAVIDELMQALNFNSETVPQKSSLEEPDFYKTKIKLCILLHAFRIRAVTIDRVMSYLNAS
Sequence (P29460 23-328, chain 2 of 2): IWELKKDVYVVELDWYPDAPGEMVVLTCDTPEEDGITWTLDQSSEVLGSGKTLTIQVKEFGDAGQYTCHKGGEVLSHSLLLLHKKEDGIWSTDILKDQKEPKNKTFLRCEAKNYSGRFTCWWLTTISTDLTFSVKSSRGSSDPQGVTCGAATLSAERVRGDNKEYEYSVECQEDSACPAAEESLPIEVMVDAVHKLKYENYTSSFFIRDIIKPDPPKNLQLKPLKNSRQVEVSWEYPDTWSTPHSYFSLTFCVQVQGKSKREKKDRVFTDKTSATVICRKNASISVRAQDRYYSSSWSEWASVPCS
Test: filter; no significant binding
Conditions: not given

| Binder | binding result |
| --- | --- |
| B1 | no binding |
| B2 | no binding |
| B3 | no binding |
| B4 | no binding |

Molecular target: T1, IL-23 (human, p19/p40 heterodimer) (Homo sapiens, UniProt Q9NPF7;P29460 SEQ:20-189,SEQ:23-328)
T1 sequence (Q9NPF7 20-189, chain 1 of 2): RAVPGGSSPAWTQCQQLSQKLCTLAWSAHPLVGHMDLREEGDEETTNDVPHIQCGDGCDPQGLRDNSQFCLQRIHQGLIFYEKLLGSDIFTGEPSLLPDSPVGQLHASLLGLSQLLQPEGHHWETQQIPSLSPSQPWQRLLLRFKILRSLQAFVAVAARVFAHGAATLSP
T1 sequence (P29460 23-328, chain 2 of 2): as the sequence (P29460 23-328, chain 2 of 2) above
Test: cell_activity; TransAM STAT3
Conditions: tags: R&D Systems, carrier free
Protocol: (§1) In summary, the cell-based assay was conducted by isolating the peripheral blood mononuclear cells (PBMCs) from whole blood using a Histopaque gradient (Sigma, St. Louis, Mo.). The PBMCs were cultured for 3 to 5 days at 37° C./5% CO₂ in Peripheral Blood Medium (Sigma) which contains PHA, supplemented with IL-2 (100 units/mL) (R&D Systems, Minneapolis, Minn.), to generate PHA Blasts. To test IL-23 aptamers, the PHA Blasts were washed twice with 1×PBS, then serum starved for four hours in RPMI, 0.20% FBS. After serum starvation, approximately 2 million cells were aliquotted into appropriately labeled eppendorf tubes. hIL-23 at a final constant concentration of 3 ng/mL (R&D Systems, Minneapolis, Minn.) was combined with a dilution series of various IL-23 aptamers as described in Example 1, and the cytokine/aptamer mixture was added to the aliquotted cells in a final volume of 100 μl and incubated at 37° C. for 10-12 minutes. The incubation reaction was stopped by adding 1 mL of ice-cold PBS with 1.5 mM Na₃VO₄. Cell lysates were made using the lysis buffer provided by the TransAM™ STAT 3 assay following the manufacturer's instructions. FIG. 20 depicts a flow summary of the protocol used for the cell based assay.
(§2) Full length clones from the rRfY selection described in Example 1A, and select minimized rRfY clones that were described in Example 2A. 1, were tested using the TransAM™ STAT3 activation assay. Table 34 summarizes the cell based assay data for IL-23 full length aptamers generated from the rRfY selections described in Example 1A. 1, each compared to the activity of their respective parent (full length) clone.

| Binder | IC50 [nM] |
| --- | --- |
| B1 | 50 |
| B2 | 50 |
| B3 | 150 |
| B4 | 50 |

Molecular target: T1, IL-23 (human, p19/p40 heterodimer)
Test: filter; SHMCK, tRNA
Conditions: tags: R&D Systems, carrier free
Protocol: Monitoring Progress of rRfY Selection. Dot blot binding assays were performed throughout the selections to monitor the protein binding affinity of the pools. Trace ³²P-labeled RNA was combined with a dilution series of h-IL-23 and incubated at room temperature for 30 minutes in 1×SHMCK (20 mM Hepes, 120 mM NaCl, 5 mM KCl, 1 mM MgCl₂, 1 mM CaCl₂, pH 7.4) plus 0.1 mg/mL tRNA for a final volume of 20 μL. The binding reactions were analyzed by nitrocellulose filtration using a Minifold I dot-blot, 96-well vacuum filtration manifold (Schleicher & Schuell, Keene, N.H.). A three-layer filtration medium was used, consisting (from top to bottom) of Protran nitrocellulose (Schleicher & Schuell), Hybond-P nylon (Amersham Biosciences) and GB002 gel blot paper (Schleicher & Schuell). RNA that is bound to protein is captured on the nitrocellulose filter, whereas the non-protein bound RNA is captured on the nylon filter. The gel blot paper was included simply as a supporting medium for the other filters. Following filtration, the filter layers were separated, dried and exposed on a phosphor screen (Amersham Biosciences, Piscataway, N.J.) and quantified using a Storm 860 Phosphorimager® blot imaging system (Amersham Biosciences).
When a significant positive ratio of binding of RNA in the presence of h-IL-23 versus in the absence of h-IL-23 was seen, the pools were cloned using a TOPO TA cloning kit (Invitrogen, Carlsbad, Calif.) according to the manufacturer's instructions. For the h-IL-23 and X-IL-23 selections, the Round 8 pool templates were cloned, and 32 individual clones from each selections were assayed in a 1-point dot blot screen (+/−75 nM h-IL-23, as well as a separate screen at +/−75 nM h-IL-12). For the PN-IL-23 selection, the Round 10 pool was cloned and sequenced, and 8 unique clones were assayed for protein binding in a 1-point dot blot screen (+/−200 nM h-IL-23 and a separate screen at +/−200 nM h-IL-12). Subsequently, the Round 10 PN-IL-23 pool was re-cloned for further sequences, as well as the R12 PN-IL-23 pool, and the clones were assayed for protein binding in a 1 point do blot screen (+/−100 nM h-IL-23 or +/−200 nM h-IL-12).

| Binder | Kd [nM] |
| --- | --- |
| B1 | 71 |
| B2 | 33 |
| B3 | 44.6 |
| B4 | 30.7 |

Molecular target: T1, IL-23 (human, p19/p40 heterodimer)
Test: filter; -tRNA
Conditions: tags: R&D Systems, carrier free
Protocol: These molecules were gel purified and assayed for IL-23 binding using the dot blot assay as described above and compared to each other and to the parent molecule, ARC979. An 8 point IL-23 titration (0 nM to 300 nM, 3 fold serial dilutions) was used in the binding assay.

| Binder | Kd [nM] |
| --- | --- |
| B5 | 107 |
| B6 | 132 |
| B7 | 142 |
| B8 | 168 |
| B9 | 174 |
| B10 | 192 |
| B11 | 232 |
| B12 | 369 |
| B13 | 55 |

Molecular target: T1, IL-23 (human, p19/p40 heterodimer)
Test: cell_activity; TransAM STAT3, PHA blasts
Conditions: tags: R&D Systems
Protocol: as §1, §2

| Binder | IC50 [nM] |
| --- | --- |
| B14 | 2000 |
| B15 | 3000 |
| B16 | 3000 |
| B17 | 3000 |
| B18 | 3000 |
| B19 | 5000 |
| B20 | > 5000 |
| B21 | > 5000 |
| B22 | > 5000 |
| B23 | > 5000 |
| B24 | 450 |
| B25 | 800 |
| B26 | 800 |
| B27 | 1000 |
| B28 | > 1000 |
| B29 | ~2000 |
